Data taken from patent publication US5637682, “High-affinity oligonucleotide ligands to the tachykinin substance P” (NeXstar Pharmaceuticals, Inc.).
Read-outs that look alike come from different tables or passages of the source.

T1: Substance P (SP) (UniProt P20366)
T1 sequence: RPKPQQFFGLM

T2: Substance P (SP) (UniProt P20366)
T2 chain: RPKPQQFFGLM

T3: Reverse-orientation substance P (rSP)
T3 chain: CMLGFFQQPKPR

T4: Substance P fragment 2-11
T4 chain: PKPQQFFGLM

B1: Experiment B class 2 ligand (SEQ 50) (ssRNA)
RNA: GGGAGCUCAGAAUAAACGCUCAAGAACAGGACACCAAGAUAAUUGGACGAGUUUACUAGGGCGGCUAUGCUGGCUCUCGAGGAUUCGACAUGAGGCCCGGAUCCGGC
B2: Ligand B32 (class 3) (ssRNA)
RNA: GGGAGCUCAGAAUAAACGCUCAAAAAGGCACUGACCACCCUCAGGAAGAAUAACCGCGGUCACCCGCAUCCGAGUCUAUCAAUUUCGACAUGAGGCCCGGAUCCGGC
B3: Experiment B class 2 ligand (SEQ 51) (ssRNA)
RNA: GGGAGCUCAGAAUAAACGCUCAAGAACAGGACACCUGGUUCUCAGGACGAGUUUACUAGGGCGGCAAAAAGGGCUCUCGUGGGUUCGACAUGAGGCCCGGAUCCGGC
B4: Experiment B class 2 ligand (SEQ 52) (ssRNA)
RNA: GGGAGCUCAGAAUAAACGCUCAAAAACAGGACACCAAUUUUAUUGGACGAGUUUACUAGGGCGGUAUUAUGGGCUCGCGAGGAUUCGACAUGAGGCCCGGAUCCGGC
B5: Experiment B class 2 ligand (SEQ 55) (ssRNA)
RNA: GGGAGCUCAGAAUAAACGCUCAAAACAGGACACCUUGAAUAAAGGACGAGUUUACUGUGCGUUUAGUAGAGAACCCGGGAUUCGACAUGAGGCCCGGAUCCGGC
B6: Ligand B28 (ssRNA)
RNA: GGGAGCUCAGAAUAAACGCUCAACUUCCAAGGCAGUGGAAACCCUAAGGUCAAUAAUGACCAAUGACGCCGCUCCGGUUCAACCUUCGACAUGAGGCCCGGAUCCGGC
B7: Experiment B class 2 ligand (SEQ 54) (ssRNA)
RNA: GGGAGCUCAGAAUAAACGCUCAAAAACAGGACACCAAGAUUAUUGGACGAGUUUACUAGGGCGAUUAAUGGGCUCGCGAUGAUUCGACAUGAGGCCCGGAUCCGGC
B8: Experiment B class 2 ligand (SEQ 49) (ssRNA)
RNA: GGGAGCUCAGAAUAAACGCUCAAUAACAGGACACCAUGAUUAAUGGACGAGUUCACUAGGGCGGUUAAAAGAGCUCUCGAGGAUUCGACAUGAGGCCCGGAUCCGGC
B9: Ligand A13 (ssRNA)
RNA: GGGAGCUCAGAAUAAACGCUCAAGGGCAACGCGGGCACCCCGACAGGUGCAAAAACGCACCGACGCCCGGCCGAAGAAGGGGAUUCGACAUGAGGCCCGGAUCCGGC
B10: Ligand B22 (class 3) (ssRNA)
RNA: GGGAGCUCAGAAUAAACGCUCAAAAGGUAAGAAACAGGACACGCACUUAAACAGACGAGUUAACCAUACCUAGAUCGCGGAAUUCGACAUGAGGCCCGGAUCCGGC
B11: Ligand B23 (class 3) (ssRNA)
RNA: GGGAGCUCAGAAUAAACGCUCAAGCUCAAGGCAGAAACAGGACACACCAAGACGAGUUAACCAGCCCAGCUUGACCAUACAUUCGACAUGAGGCCCGGAUCCGGC
B12: Experiment B class 2 ligand (SEQ 53) (ssRNA)
RNA: GGGAGCUCAGAAUAAACGCUCAAAAACAGGACACCAUGAAAAUGGACGAGUUCACUAGAGCGUUGAGCUGUGCGCCCGUGGAUUCGACAUGAGGCCCGGAUCCGGC
B13: Experiment B class 2 ligand (SEQ 48) (ssRNA)
RNA: GGGAGCUCAGAAUAAACGCUCAAAAAACAGGACACCAUGAUAAAUGGACGAGUUCACUGGAGCGUCUAAAAGGGCACCCUUGGAUUCGACAUGAGGCCCGGAUCCGGC

What was measured:
[1] = target: T1, Substance P (SP); details: equilibrium dialysis rough estimate, 20 uM RNA, fraction bound 0.017
[2] = target: T2, Substance P (SP); assay: single-point equilibrium dialysis; stated for all class 2; details: protein: synthetic; tags: free synthetic peptide, C-terminal amide, Sigma (3H-SP from NEN as tracer)
Method: (§1) Binding reactions consisted of 20 nM ^3H-SP (P_o) and either 0.2 µM RNA (a) or 1.0 µM RNA (b). ND=not determined.
(§2) Equilibrium dialysis. Equilibrium dialysis experiments were performed with a Spectra/Por® (Spectrum; Houston, Tex.) equilibrium dialyzer, Spectra/Por® (Spectrum; Houston, Tex.) microcell dialysis chambers (200-μl chamber volumes), and 12000–14000 MWCO dialysis membranes (Spectrum; Houston, Tex.). These membranes allow passage of SP but not 107-nt RNAs. Sample volumes were 200 μl on each side of the membrane (i.e., 200 μl per chamber). All experiments were at room temperature in 1X SP binding buffer. RNAs (unlabeled) were denatured prior to re-equilibration in binding buffer as described above for Experiment B. For binding curves (FIG. 4), RNA concentrations between 50 nM and 20 μM were utilized. […] For binding competition experiments (FIGS. 6 and 7), equal concentrations of the competing peptide were applied to each side of the membrane at the start of dialysis. The dialysis cells were rotated at 10 rpm to shorten the time required to reach equilibrium. […] Following equilibration, samples were withdrawn from the dialysis chambers, added to scintillation fluid, and counted.

[3] = target: T2, Substance P (SP); assay: single-point equilibrium dialysis; exception to the >2 uM statement, exact value only in figure; details: protein: synthetic; tags: free synthetic peptide, C-terminal amide, Sigma (3H-SP from NEN as tracer)
Method: as §1, §2

[4] = target: T2, Substance P (SP); assay: equilibrium dialysis, five-point curve; single-point screen gave 170 nM; 10 mM HEPES pH 7.0, 150 mM NaCl, 5 mM KCl, 5 mM CaCl2, room temp; details: protein: synthetic; tags: free synthetic peptide, C-terminal amide, Sigma (3H-SP from NEN as tracer)
Method: as §2

[5] = target: T3, Reverse-orientation substance P (rSP); assay: competition; poor competitor of 3H-SP up to 100 uM; 1.6 uM RNA, 1.6 uM SP; details: protein: synthetic; tags: synthetic peptide
Method: as §2, with “These” for “Equilibrium dialysis. Equilibrium dialysis experiments were performed with a Spectra/Por® (Spectrum; Houston, Tex.) equilibrium dialyzer, Spectra/Por® (Spectrum; Houston, Tex.) microcell dialysis chambers (200-μl chamber volumes), and 12000–14000 MWCO dialysis membranes (Spectrum; Houston, Tex.). These”

[6] = target: T4, Substance P fragment 2-11; assay: competition; unable to compete at 32 uM (20-fold excess over SP); details: protein: synthetic; tags: synthetic peptide, Sigma
Method: as §2

[7] = target: T2, Substance P (SP); assay: equilibrium dialysis, five-point curve; earlier estimate 14 uM; SP binding buffer, room temp; details: protein: synthetic; tags: free synthetic peptide, C-terminal amide, Sigma (3H-SP from NEN as tracer)
Method: as §2

[8] = target: T2, Substance P (SP); assay: single-point equilibrium dialysis; details: protein: synthetic; tags: free synthetic peptide, C-terminal amide, Sigma (3H-SP from NEN as tracer)
Method: as §1, §2

Row | Molecule | Kd [2] | other results
1 | GGGAGCUCAGAAUAAACGCUCAANNNNNNNNNNNNNNNNNNNNNNNNNNNNNNNNNNNNNNNNNNNNNNNNNNNNNNNNNNNNUUCGACAUGAGGCCCGGAUCCGGC [Unselected random 60N RNA pool] |  | Kd [1]: 1200 µM
2 | B1 | > 2 µM | 
3 | B2 |  | Kd [3]: < 2 µM
4 | B3 | > 2 µM | 
5 | B4 | > 2 µM | 
6 | B5 | > 2 µM | 
7 | B6 |  | Kd [4]: 0.19 µM; binding result [5]: no binding; binding result [6]: no binding
8 | B7 | > 2 µM | 
9 | B8 | > 2 µM | 
10 | B9 |  | Kd [7]: 5.8 µM
11 | B10 |  | Kd [8]: > 2 µM
12 | B11 |  | Kd [8]: > 2 µM
13 | B12 | > 2 µM | 
14 | B13 | > 2 µM | 
